Laboratory results from US20260217843A1 (APOGEE THERAPEUTICS, published 2026).
Where a chain is given by its changes, count along the chain named.

B1: anti-hOX40L antibody clone 105 (antibody, human IgG1, kappa, L234A L235A)
heavy: EVRLVESGGGLVQPGGSLRLSCAASGFTFSSYAMTWVRQAPGKGLEWVSLISGSGGLTKYADSVKGRFTISRDNSKKTLYLQMNSLRAEDTAVYYCAKDEGLTTGEYWGQGTLVTVSSASTKGPSVFPLAPSSKSTSGGTAALGCLVKDYFPEPVTVSWNSGALTSGVHTFPAVLQSSGLYSLSSVVTVPSSSLGTQTYICNVNHKPSNTKVDKKVEPKSCDKTHTCPPCPAPEAAGGPSVFLFPPKPKDTLYITREPEVTCVVVDVSHEDPEVKFNWYVDGVEVHNAKTKPREEQYNSTYRVVSVLTVLHQDWLNGKEYKCKVSNKALPAPIEKTISKAKGQPREPQVYTLPPSRDELTKNQVSLTCLVKGFYPSDIAVEWESNGQPENNYKTTPPVLDSDGSFFLYSKLTVDKSRWQQGNVFSCSVMHEALHNHYTQKSLSLSPG
light: DIQMTQSPSSLSASVGDRVTITCRASQGIRNDLGWYQQKPGKAPKRLIYATSSFQSGVPSRFSGSGSGTEFTLTISSLQPEDFATYYCLQHNSYPFTFGPGTKVDVKRTVAAPSVFIFPPSDEQLKSGTASVVCLLNNFYPREAKVQWKVDNALQSGNSQESVTEQDSKDSTYSLSSTLTLSKADYEKHKVYACEVTHQGLSSPVTKSFNRGEC
B2: anti-hOX40L antibody clone 114 (antibody, human IgG1, kappa, L234A L235A)
heavy: B1 heavy with R3Q, L4V, S31N, A40S, Y80F, V93A, A97V, L113Q
light: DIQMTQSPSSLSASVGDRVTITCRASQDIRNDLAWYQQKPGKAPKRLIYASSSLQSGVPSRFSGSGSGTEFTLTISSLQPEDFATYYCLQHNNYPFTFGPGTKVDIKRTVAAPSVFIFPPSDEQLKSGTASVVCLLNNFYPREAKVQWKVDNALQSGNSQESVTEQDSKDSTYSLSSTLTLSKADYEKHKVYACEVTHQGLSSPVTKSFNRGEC
B3: anti-hOX40L antibody clone 231 (antibody, human IgG1, kappa, L234A L235A)
heavy: QVQLVQSGTEVKKPGASVKVSCKASGYTFTNYDINWVRQATGQGLEWVGWIHPNTGKTGYAQKFQGRVTMTRDISIGTAYMELNSLRSEDTAVYYCARESYDLWSGHSFNWFDPWGQGTLVTVSSASTKGPSVFPLAPSSKSTSGGTAALGCLVKDYFPEPVTVSWNSGALTSGVHTFPAVLQSSGLYSLSSVVTVPSSSLGTQTYICNVNHKPSNTKVDKKVEPKSCDKTHTCPPCPAPEAAGGPSVFLFPPKPKDTLYITREPEVTCVVVDVSHEDPEVKFNWYVDGVEVHNAKTKPREEQYNSTYRVVSVLTVLHQDWLNGKEYKCKVSNKALPAPIEKTISKAKGQPREPQVYTLPPSRDELTKNQVSLTCLVKGFYPSDIAVEWESNGQPENNYKTTPPVLDSDGSFFLYSKLTVDKSRWQQGNVFSCSVMHEALHNHYTQKSLSLSPG
light: DIQLTQSPSFLSASVGDRVIITCRASQGITSYLAWYQRKPGKAPKLLIYGATTLQSGVPSRFSGSGSGTEFTLTISSLQPEDFATYYCQQLQSYPYTFGQGTKLEIKRTVAAPSVFIFPPSDEQLKSGTASVVCLLNNFYPREAKVQWKVDNALQSGNSQESVTEQDSKDSTYSLSSTLTLSKADYEKHKVYACEVTHQGLSSPVTKSFNRGEC

Columns and labels:
biotinylated hOX40L = biological target: T1, biotinylated hOX40L (human, UniProt P23510 51-183, limits assumed, biotinylated (sites not given)); assay: blocking ELISA: biotinylated hOX40L preincubated with titrated antibody, added to coated hOX40-Fc, Extravidin-HRP
T1 construct: construct not described
T1 sequence: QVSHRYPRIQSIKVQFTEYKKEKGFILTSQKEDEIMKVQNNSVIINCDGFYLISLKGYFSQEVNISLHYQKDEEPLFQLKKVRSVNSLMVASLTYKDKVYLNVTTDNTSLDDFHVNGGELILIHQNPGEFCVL

[1] = biological target: T2, hOX40L added as soluble protein in cell assays (human, UniProt P23510 51-183, limits assumed); assay: cell-based or functional assay
T2 sequence: T1 sequence

[2] = biological target: T2, hOX40L added as soluble protein in cell …; assay: cell-based or functional assay; remark: listed apart in the source
[3] = biological target: T3, Recombinant Human OX40L Protein, His Tag (Acro Cat. IL3-H52H4) (human, UniProt P23510 51-183); assay: SPR (Biacore 8K), antibody captured, human OX40L injected, 1:1 fit
T3 construct: Bought His-tagged protein; also called hOX40L
T3 sequence: T1 sequence
Method: (§1) Samples were injected in a multi-cycle manner over freshly captured mAb, by regenerating the capture surfaces with injection of glycine pH 1.5 for 30 sec at a flow rate of 30 μL/min. The data was processed and analyzed with Biacore Insight Evaluation Software Version 2.0.15.12933 (GE Healthcare) as follows. […] The responses from the two buffer blank injections were then subtracted from the reference subtracted data (2-1) to yield double-referenced data, which were fit to an 1:1 binding model to determine the apparent association (ka) and dissociation rate constants (kd). Their ratio provided the apparent equilibrium dissociation constant or affinity constant (KD=kd/ka).

[4] = biological target: T4, hOX40L on hOX40L-expressing CHO cells (human, UniProt P23510 1-183); assay: flow cytometry on hOX40L-expressing CHO cells, gMFI, nonlinear regression
T4 construct: also called cell surface OX40L
T4 sequence: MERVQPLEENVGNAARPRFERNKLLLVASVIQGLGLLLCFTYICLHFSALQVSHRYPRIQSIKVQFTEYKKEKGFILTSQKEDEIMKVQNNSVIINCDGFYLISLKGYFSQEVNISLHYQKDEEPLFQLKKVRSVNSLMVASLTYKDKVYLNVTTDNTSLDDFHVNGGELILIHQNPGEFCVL
Method: Nonlinear regression was performed on geometric mean fluorescence intensity (gMFI) values to determine EC50 values (FIG. 1, TABLE 8).

human FcRn = human FcRn (human, UniProt P55899 24-297; P61769 21-119); assay: SPR (Biacore 8K+), antibody captured by anti-human kappa, human FcRn injected, pH 5.8; pH 5.8
Chain of human FcRn (P55899 24-297 limits assumed, form in doubt, chain 1 of 2): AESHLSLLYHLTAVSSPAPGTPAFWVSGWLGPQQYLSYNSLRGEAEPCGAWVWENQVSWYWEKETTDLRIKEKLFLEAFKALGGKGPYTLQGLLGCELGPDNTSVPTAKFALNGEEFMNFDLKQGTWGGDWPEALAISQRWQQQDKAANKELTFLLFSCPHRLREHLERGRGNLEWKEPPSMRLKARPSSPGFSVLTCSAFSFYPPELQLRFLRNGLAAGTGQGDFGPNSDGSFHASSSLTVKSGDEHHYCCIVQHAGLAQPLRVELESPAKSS
Chain of human FcRn (P61769 21-119 limits assumed, form in doubt, chain 2 of 2): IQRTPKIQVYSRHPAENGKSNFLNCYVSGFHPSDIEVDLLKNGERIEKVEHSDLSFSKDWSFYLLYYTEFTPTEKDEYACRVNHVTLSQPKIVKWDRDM
Method: (§2) Briefly, a CM5 Series S sensor chip functionalized with anti-human kappa antibody was used to capture antibodies at 5 μg/mL. […] The chip was regenerated with 10 mM glycine pH 1.5 and 10 mM NaOH between runs.

[5] = biological target: T5, Recombinant Cynomolgus OX40L Protein, His Tag (SINO BIOLOGICAL, Cat. 11057-C07H) (cynomolgus, UniProt G7NVH7 51-183); assay: SPR (Biacore 8K), antibody captured, cynomolgus OX40L injected, 1:1 fit
T5 construct: Bought protein
T5 sequence: T1 sequence with R5Q, K23E
Method: as §1

C1q = biological target: T6, C1q; assay: SPR (Biacore 8K+), antibody captured by anti-human IgG Fc, C1q injected at 25 nM, mean response
T6 construct: also called Clq
T6 sequence (P02745 23-245, chain 1 of 3): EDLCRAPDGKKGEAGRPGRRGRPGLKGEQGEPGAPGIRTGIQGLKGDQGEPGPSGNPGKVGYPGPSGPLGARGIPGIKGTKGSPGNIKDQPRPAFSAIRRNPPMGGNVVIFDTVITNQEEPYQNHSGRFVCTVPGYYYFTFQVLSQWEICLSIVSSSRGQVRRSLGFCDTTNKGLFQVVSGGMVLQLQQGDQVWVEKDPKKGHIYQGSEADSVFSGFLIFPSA
T6 sequence (P02746 28-253, chain 2 of 3, further chain): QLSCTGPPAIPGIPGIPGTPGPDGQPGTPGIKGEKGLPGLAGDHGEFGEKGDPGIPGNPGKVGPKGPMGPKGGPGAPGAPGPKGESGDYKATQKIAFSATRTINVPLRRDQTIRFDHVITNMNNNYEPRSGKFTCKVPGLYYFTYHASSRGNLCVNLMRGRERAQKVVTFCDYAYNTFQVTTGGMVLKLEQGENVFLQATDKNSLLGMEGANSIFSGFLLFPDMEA
T6 sequence (P02747 29-245, chain 3 of 3, further chain): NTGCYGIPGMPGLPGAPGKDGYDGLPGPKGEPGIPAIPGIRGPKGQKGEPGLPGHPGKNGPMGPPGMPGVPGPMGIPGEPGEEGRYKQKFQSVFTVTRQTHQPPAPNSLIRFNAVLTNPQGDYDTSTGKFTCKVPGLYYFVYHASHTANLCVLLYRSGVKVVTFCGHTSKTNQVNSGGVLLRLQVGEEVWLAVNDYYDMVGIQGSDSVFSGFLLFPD
Method: (§3) Briefly, a CM5 Series S sensor chip functionalized with anti-human IgG Fc antibody was used to capture antibodies at 5 μg/mL. […] The chip was regenerated with 10 mM glycine pH 1.5 and 10 mM NaOH between runs.

cynomolgus FcRn = cynomolgus FcRn (cynomolgus, UniProt Q8SPV9 24-297; Q8SPW0 21-119); assay: SPR (Biacore 8K+), antibody captured by anti-human kappa, cynomolgus FcRn injected, pH 5.8; pH 5.8
Chain of cynomolgus FcRn (Q8SPV9 24-297 limits assumed, chain 1 of 2): as the sequence (P55899 24-297 limits assumed, form in doubt, chain 1 of 2) above, with N39D, E44Q, G99S, S189G, S190N, L217M, S269T counted along it
Chain of cynomolgus FcRn (Q8SPW0 21-119 limits assumed, chain 2 of 2): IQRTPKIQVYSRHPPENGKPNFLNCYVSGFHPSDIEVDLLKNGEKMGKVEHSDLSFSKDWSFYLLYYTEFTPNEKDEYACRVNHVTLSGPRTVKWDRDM
Method: as §2

human CD16a 176V = biological target: T7, human CD16a 176V (human, UniProt P08637 17-208); assay: SPR (Biacore 8K+), antibody captured by anti-human IgG Fc, receptor injected
T7 construct: Allelic variant named only as '176V'; numbering not explained
T7 sequence (P08637 17-208 F176V limits assumed): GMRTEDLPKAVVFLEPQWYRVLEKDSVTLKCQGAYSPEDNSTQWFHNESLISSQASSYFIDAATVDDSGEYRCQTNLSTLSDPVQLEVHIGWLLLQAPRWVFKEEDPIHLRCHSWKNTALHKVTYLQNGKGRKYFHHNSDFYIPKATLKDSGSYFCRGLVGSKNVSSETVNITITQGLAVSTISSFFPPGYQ
Method: as §3

human CD32a 167R = biological target: T8, human CD32a 167R (human, UniProt P12318 36-218); assay: as above
T8 construct: numbering not explained
T8 sequence (looked up): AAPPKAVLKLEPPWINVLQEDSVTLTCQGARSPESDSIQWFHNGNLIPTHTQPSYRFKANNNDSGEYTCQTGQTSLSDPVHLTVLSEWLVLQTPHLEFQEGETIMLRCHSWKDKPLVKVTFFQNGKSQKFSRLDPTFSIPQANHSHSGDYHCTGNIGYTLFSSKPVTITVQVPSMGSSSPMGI
Method: as §3

human CD16a 176F = biological target: T9, human CD16a 176F (human, UniProt P08637 17-208); assay: as above
T9 construct: numbering not explained
T9 sequence (P08637 17-208 limits assumed): as the sequence (P08637 17-208 F176V limits assumed) above, with V160F counted along it
Method: as §3

human CD32a 167H = biological target: T10, human CD32a 167H (human, UniProt P12318 36-218); assay: as above
T10 construct: numbering not explained
T10 sequence (looked up): T8 sequence (looked up) with R132H
Method: as §3

human CD64 = human CD64 (human, UniProt P12314 16-288); assay: as above
Chain of human CD64 (P12314 16-288 limits assumed): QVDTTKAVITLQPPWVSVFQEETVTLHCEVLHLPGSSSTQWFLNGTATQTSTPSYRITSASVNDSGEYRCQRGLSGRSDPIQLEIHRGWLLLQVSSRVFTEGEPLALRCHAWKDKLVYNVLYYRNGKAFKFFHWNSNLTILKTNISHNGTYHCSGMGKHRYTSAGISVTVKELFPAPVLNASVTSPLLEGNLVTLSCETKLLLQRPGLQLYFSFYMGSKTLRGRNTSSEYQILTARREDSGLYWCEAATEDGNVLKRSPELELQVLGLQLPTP
Method: as §3

human CD16b = human CD16b (human, UniProt O75015 17-200, limits assumed); assay: as above
Chain of human CD16b (O75015 17-200 limits assumed): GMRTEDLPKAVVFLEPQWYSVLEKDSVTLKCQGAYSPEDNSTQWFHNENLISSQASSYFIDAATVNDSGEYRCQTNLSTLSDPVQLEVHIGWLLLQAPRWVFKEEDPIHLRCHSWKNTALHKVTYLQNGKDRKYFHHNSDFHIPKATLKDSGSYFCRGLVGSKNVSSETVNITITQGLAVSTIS
Method: as §3

human CD32b = biological target: T11, human CD32b (human, UniProt P31994 46-217); assay: as above
T11 sequence (looked up): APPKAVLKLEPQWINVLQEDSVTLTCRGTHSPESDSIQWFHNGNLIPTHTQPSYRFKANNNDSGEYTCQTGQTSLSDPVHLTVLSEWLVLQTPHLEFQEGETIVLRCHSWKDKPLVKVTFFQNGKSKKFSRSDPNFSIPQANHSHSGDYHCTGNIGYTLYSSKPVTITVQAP
Method: as §3

Binder	IC50 (biotinylated hOX40L) [nM]	IC50, luminescence (RLU), hOX40 reporter cells with 50 ng/mL hOX40L [2] [nM]	Kd [3] [nM]	koff [3] [s⁻¹]	kon [3] [M⁻¹ s⁻¹]	Kd (human FcRn) [nM]	koff (human FcRn) [s⁻¹]	kon (human FcRn) [M⁻¹ s⁻¹]	Kd [5] [nM]	koff [5] [s⁻¹]	kon [5] [M⁻¹ s⁻¹]	RU at 25 nM C1q (C1q) [RU]	Kd (cynomolgus FcRn) [nM]	koff (cynomolgus FcRn) [s⁻¹]	kon (cynomolgus FcRn) [M⁻¹ s⁻¹]	binding result (human CD16a 176V)	binding result (human CD32a 167R)	binding result (human CD16a 176F)	binding result (human CD32a 167H)	binding result (human CD64)	further results
B1	1.41	0.852	0.141	0.000125	886000	145	0.0442	306000	0.0494	8.09e-05	1.64e+06	-3.6	121	0.0453	374000	no binding (tested: 6 µM)	no binding (tested: 8 µM)	no binding (tested: 6 µM)	no binding (tested: 8 µM)	no binding (tested: 12.5 nM)	Donor 1 IC50, IL-2 release by pre-activated human CD4+ T cells with 20 ng/ml human OX40L [1]: 1.37 nM; Donor 2 IC50, IL-2 release by pre-activated human CD4+ T cells with 20 ng/ml human OX40L [1]: 1.33 nM; Donor 3 IC50, IL-2 release by pre-activated human CD4+ T cells with 20 ng/ml human OX40L [1]: 1 nM; EC50 [4]: 3.43 nM; binding result (human CD16b): no binding (tested: 10 µM); binding result (human CD32b): no binding (tested: 18 µM)
B2	1.12	0.732	0.106	0.000114	1.07e+06	141	0.0471	333000	0.0336	7.73e-05	2.3e+06	-4.8	117	0.0445	381000	no binding (tested: 6 µM)	no binding (tested: 8 µM)	no binding (tested: 6 µM)	no binding (tested: 8 µM)	no binding (tested: 12.5 nM)	Donor 1 IC50, IL-2 release by pre-activated human CD4+ T cells with 20 ng/ml human OX40L [1]: 1.25 nM; Donor 2 IC50, IL-2 release by pre-activated human CD4+ T cells with 20 ng/ml human OX40L [1]: 1.19 nM; Donor 3 IC50, IL-2 release by pre-activated human CD4+ T cells with 20 ng/ml human OX40L [1]: 1.18 nM; EC50 [4]: 4.04 nM; binding result (human CD16b): no binding (tested: 10 µM); binding result (human CD32b): no binding (tested: 18 µM)
B3	28.5	0.909	0.137	0.00013	943000	141	0.0462	328000	0.0714	0.000105	1.47e+06	1.8	117	0.0465	398000	no binding (tested: 6 µM)	no binding (tested: 8 µM)	no binding (tested: 6 µM)	no binding (tested: 8 µM)	no binding (tested: 12.5 nM)	binding result (human CD16b): no binding (tested: 10 µM); binding result (human CD32b): no binding (tested: 18 µM)
